Assay results reported in patent publication US20120065123A1 (published 2012).
Where no end group is shown, it is not given here.

B1: linker-optimized BP1/BP2 DNA-linked synbody (BP1 on the template strand, BP2 at position 13 from the 3' end of the variable strand) (designed binder)
peptide 1: GTEKGTSGWLKTGSC
peptide 2: EGEWTEGKLSLRGSC
modifications: not fully specified (some residues, bridges); also: two DNA strands, each joined to a peptide C-terminal Cys through SMCC, double-stranded DNA linker
notes: Two peptides held by a double-stranded DNA linker; for ELISA a third psoralen-crosslinked strand carried biotin and streptavidin-HRP; also called gal80 synbody; the linker-optimized synbody
B2: BP2 on dsDNA (peptide)
peptide: EGEWTEGKLSLRGSC
modifications: chain 1 pos 15: Cys thiol joined via SMCC maleimide to an amine-modified cytosine of the double-stranded DNA linker, which the letters cannot carry
notes: also called BP2 alone conjugated to DNA linker
B3: BP1 on dsDNA (peptide)
peptide: GTEKGTSGWLKTGSC
modifications: chain 1 pos 15: Cys thiol joined via SMCC maleimide to an amine-modified cytosine of the double-stranded DNA linker, which the letters cannot carry
notes: also called BP1 alone conjugated to DNA linker
B4: BP2 variant EGEITEGKKSKIGSC (peptide)
peptide: EGEITEGKKSKIGSC
notes: Made in place on a glass slide by light-directed synthesis

How the values were obtained:
[1] = target: T1, pooled human transferrin (Sigma), biotinylated (human, UniProt P02787 20-698, biotinylated at amines with NHS-LC-LC-Biotin); assay: SPR (Biacore A-100), biotinylated transferrin captured on Neutravidin, unpurified peptide injected for 60 s [f]
T1 construct: Captured on Neutravidin on a CM5 chip (Biacore A-100)

[2] = target: T1, pooled human transferrin (Sigma), …; assay: SPR (Biacore A-100), biotinylated transferrin captured on Neutravidin, unpurified peptide injected for 60 s [j]
[3] = target: T1, pooled human transferrin (Sigma), …; assay: SPR (Biacore A-100), biotinylated transferrin captured on Neutravidin, unpurified peptide injected for 60 s [k]
[4] = target: T1, pooled human transferrin (Sigma), …; assay: SPR (Biacore A-100), biotinylated transferrin captured on Neutravidin, unpurified peptide injected for 60 s [i]
Source text: (§1) A Biacore A-100 Surface Plasmon Resonance (SPR) system was used to measure the binding response of each peptide to several different target proteins immobilized on a gold surface. The A-100 has four different flow cells and within each flow cell are five addressable spots. Therefore four different proteins and a negative control reference can be used per flow cell. Depending on the purpose of the assay, up to 16 different target proteins can be immobilized on a single SPR chip. The instrument is equipped to evaluate up to 10 384-well plates unattended and can process approximately four 384-well plates per day. Sensorgrams are collected from each immobilized protein, so a binding profile for each analyte versus each of the protein targets is generated for each injection. Target proteins were immobilized using a biotin capture approach in which a CM5 chip was activated using standard amine coupling chemistry and Neutravidin was covalently coupled to the chip. Each biotinylated protein was injected over a single spot and the amount of protein captured was measured.

[5] = target: T1, pooled human transferrin (Sigma), …; assay: SPR (Biacore A-100), biotinylated transferrin captured on Neutravidin, unpurified peptide injected for 60 s [g]
[6] = target: T1, pooled human transferrin (Sigma), …; assay: SPR (Biacore A-100), biotinylated transferrin captured on Neutravidin, unpurified peptide injected for 60 s [l]
Source text: as §1

Gal80 [7] = target: T2, Gal80 (UniProt P04387 1-435, limits assumed); assay: gel shift assay; gel shift assay
T2 construct: Cy3/Cy5 or otherwise fluorescently labelled on arrays; immobilised in SPR and ELISA
T2 sequence (looked up): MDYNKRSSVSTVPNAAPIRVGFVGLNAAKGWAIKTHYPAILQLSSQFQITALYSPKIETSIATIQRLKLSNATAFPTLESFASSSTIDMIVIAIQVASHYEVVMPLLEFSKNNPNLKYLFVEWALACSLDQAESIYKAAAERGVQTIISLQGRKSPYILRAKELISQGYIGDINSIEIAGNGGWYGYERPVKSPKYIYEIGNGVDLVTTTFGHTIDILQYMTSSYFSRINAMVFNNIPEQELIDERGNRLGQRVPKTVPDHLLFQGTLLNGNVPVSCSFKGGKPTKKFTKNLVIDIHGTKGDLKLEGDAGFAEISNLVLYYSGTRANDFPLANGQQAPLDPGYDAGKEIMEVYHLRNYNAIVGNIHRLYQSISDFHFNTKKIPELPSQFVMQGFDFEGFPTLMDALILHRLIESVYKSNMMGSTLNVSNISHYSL

Gal80 [8] = target: T2, Gal80; assay: SPR, synbody in solution, surface-bound Gal80; SPR, synbody in solution, surface-bound Gal80
Gal80 [9] = target: T2, Gal80; assay: light-directed peptide array, 25 pM labelled GAL80 with 1 mg/mL E. coli lysate; against template BP2
Protocol: Variant peptides in the array were designed to contain both invariable and variable positions. Invariable positions were coupled using standard Fmoc solid-phase synthesis protocols. Briefly, the Fmoc protecting group was removed with 20% piperidine in DMF for 20 minutes. After deprotection, the next Fmoc amino acid was coupled to the N-terminus of the peptide chain (0.1 M Fmoc amino acid, 0.1 M HATU, 0.4 M DIPEA in DMF). Amino acid coupling times were typically 60 minutes. Variable positions in the peptide were coupled using light-directed chemistry. First, the N-terminal Fmoc group was removed from all peptides using 20% piperidine in DMF and the photolabile protecting group MeNPOC—Cl was coupled to the liberated N-terminal amines for 30 minutes. The array was then immersed in photolysis solution containing 30% β-mercaptoethanol, 7% DIPEA in acetonitrile. A photolithographic mask was projected on the substrate using a Digital Mirror Device, to selectively remove the MeNPOC protecting group in the illuminated regions. The substituted FMOC amino acid was added and allowed to couple to the selectively deprotected regions. After coupling, photodeprotection was repeated for different regions on the array and the next amino acid was coupled. This photodeprotection/coupling cycle was repeated for all substituted amino acids at a particular position in the peptide. After all peptides on the array are grown to the desired length a final side-chain deprotection is done using 95% TFA, 2.5% TIPS, 2.5% H₂O for 1 hour.
The chemically diverse set of 10 amino acids {I, D, W, L, E, G, T, S, K, R} were selected as the amino acids to substitute into the four variable positions for a total of 10,000 unique variant peptides. Three replicates were included in the array to produce a total of 30,000 array features. The variant array (including the lead peptide) was synthesized using light-directed synthesis described above.

Gal80 [10] = target: T2, Gal80; assay: SPR with gal80 immobilised on the chip; Kd from on and off rates
[11] = target: T1, pooled human transferrin (Sigma), …; assay: SPR (Biacore A-100), biotinylated transferrin captured on Neutravidin, unpurified peptide injected for 60 s [c]
Source text: as §1

[12] = target: T1, pooled human transferrin (Sigma), …; assay: SPR (Biacore A-100), biotinylated transferrin captured on Neutravidin, unpurified peptide injected for 60 s [d]
[13] = target: T1, pooled human transferrin (Sigma), …; assay: SPR (Biacore A-100), biotinylated transferrin captured on Neutravidin, unpurified peptide injected for 60 s [b]

T1 sequence (P02787 20-698 limits assumed): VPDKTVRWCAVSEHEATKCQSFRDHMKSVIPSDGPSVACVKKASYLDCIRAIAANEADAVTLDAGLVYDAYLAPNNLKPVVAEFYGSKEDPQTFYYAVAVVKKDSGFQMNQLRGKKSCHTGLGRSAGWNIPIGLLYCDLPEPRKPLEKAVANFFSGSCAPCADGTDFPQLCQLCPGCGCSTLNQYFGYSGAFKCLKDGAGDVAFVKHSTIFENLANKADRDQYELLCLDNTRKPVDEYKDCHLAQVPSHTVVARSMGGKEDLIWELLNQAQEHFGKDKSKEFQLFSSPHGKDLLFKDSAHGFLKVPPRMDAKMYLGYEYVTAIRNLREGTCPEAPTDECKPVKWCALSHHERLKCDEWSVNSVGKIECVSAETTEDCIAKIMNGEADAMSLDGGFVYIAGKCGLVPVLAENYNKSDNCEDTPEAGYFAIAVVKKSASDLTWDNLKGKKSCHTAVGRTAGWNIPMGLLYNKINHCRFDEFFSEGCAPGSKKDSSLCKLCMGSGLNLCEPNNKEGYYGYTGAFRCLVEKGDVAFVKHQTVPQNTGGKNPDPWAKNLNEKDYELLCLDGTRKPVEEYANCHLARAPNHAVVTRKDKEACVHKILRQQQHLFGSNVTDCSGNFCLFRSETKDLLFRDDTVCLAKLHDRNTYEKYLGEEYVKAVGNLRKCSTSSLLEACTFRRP

Binder	Fold Enhancement (Gal80 [9])	other results
KMRTITYYHLQAILKQRGSC (Unpurified library peptide) [transferrin binding peptide of FIG. 60F]	–	binding result [1]: binds
DRDTPWETTNKTEEGIEGSC (Unpurified library peptide) [transferrin binding peptide of FIG. 60J]	–	binding result [2]: binds
QENDQQSFGLGGMMGQAGSC (Unpurified library peptide) [transferrin binding peptide of FIG. 60K]	–	binding result [3]: binds
AMMRMDMAGLNKIVFHQGSC (Unpurified library peptide) [transferrin binding peptide of FIG. 60I]	–	binding result [4]: binds
DNSRRSAKQRIFMHVDLGSC (Unpurified library peptide) [transferrin binding peptide of FIG. 60G]	–	binding result [5]: binds
TEDNDYMVVSMVVTMEPGSC (Unpurified library peptide) [transferrin binding peptide of FIG. 60L]	–	binding result [6]: binds
B1	–	Kd (Gal80 [7]): ~100 nM; Kd (Gal80 [8]): 91 nM
EGEITEGKGSKKGSC [BP2 variant EGEITEGKGSKKGSC]	9.87 fold	–
EGEITEGKLSKKGSC [BP2 variant EGEITEGKLSKKGSC]	9.72 fold	–
B2	–	Kd (Gal80 [10]): 982 nM
WMDDIDAPQDEWWVFHHGSC (Unpurified library peptide) [transferrin binding peptide of FIG. 60C]	–	binding result [11]: binds
DFLWSKSGILSHASWNHGSC (Unpurified library peptide) [transferrin binding peptide of FIG. 60D]	–	binding result [12]: binds
NIRMLLRFTVFPAQKLIGSC (Unpurified library peptide) [transferrin binding peptide of FIG. 60B]	–	binding result [13]: binds
B3	–	Kd (Gal80 [10]): 482 nM
EGEITEGKKSKLGSC [BP2 variant EGEITEGKKSKLGSC]	11.1 fold	–
EGEITEGKKSKTGSC [BP2 variant EGEITEGKKSKTGSC]	10.6 fold	–
EGEKTEGKKSKLGSC [BP2 variant EGEKTEGKKSKLGSC]	9.81 fold	–
EGEKTEGKKSKEGSC [BP2 variant EGEKTEGKKSKEGSC]	9.7 fold	–
EGEDTEGKKSKTGSC [BP2 variant EGEDTEGKKSKTGSC]	10.2 fold	–

Binder	Fold Enhancement (Gal80 [9])	other results
EGEITEGKKSKGGSC [BP2 variant EGEITEGKKSKGGSC]	10.8 fold	–
EGEKTEGKKSKTGSC [BP2 variant EGEKTEGKKSKTGSC]	8.5 fold	–
EGEWTEGKKSKRGSC [BP2 variant EGEWTEGKKSKRGSC]	11 fold	–
EGEWTEGKKSKIGSC [BP2 variant EGEWTEGKKSKIGSC]	10.4 fold	–
EGEWTEGKKSKEGSC [BP2 variant EGEWTEGKKSKEGSC]	10.7 fold	–
EGEDTEGKKSKLGSC [BP2 variant EGEDTEGKKSKLGSC]	10.4 fold	–
EGEITEGKKSKSGSC [BP2 variant EGEITEGKKSKSGSC]	9.91 fold	–
EGEDTEGKKSKRGSC [BP2 variant EGEDTEGKKSKRGSC]	10.4 fold	–
EGEITEGKKSKEGSC [BP2 variant EGEITEGKKSKEGSC]	10.9 fold	–
EGEITEGKKSKRGSC [BP2 variant EGEITEGKKSKRGSC]	10.5 fold	–
EGEWTEGKKSKGGSC [BP2 variant EGEWTEGKKSKGGSC]	11.1 fold	–
EGEKTEGKKSKGGSC [BP2 variant EGEKTEGKKSKGGSC]	9.24 fold	–
B4	11.3 fold	–
EGEDTEGKKSKEGSC [BP2 variant EGEDTEGKKSKEGSC]	10.1 fold	–
EGEDTEGKKSKGGSC [BP2 variant EGEDTEGKKSKGGSC]	10.8 fold	–
EGEWTEGKKSKLGSC [BP2 variant EGEWTEGKKSKLGSC]	10.7 fold	–
EGEWTEGKKSKTGSC [BP2 variant EGEWTEGKKSKTGSC]	10.5 fold	–
EGEDTEGKKSKIGSC [BP2 variant EGEDTEGKKSKIGSC]	10.4 fold	–
